Source: patent US20070092489A1
Values joined by “and” are separate entries in the source; they are usually repeats but may differ in a detail not shown here. Equal entries are not always repeated.

What was measured:
[1] = target: adenovirus fiber knob as shown on Av3GFP adenoviral vector particles; assay: cell-based or functional assay
[2] = target: adenovirus fiber knob as shown on Cy3-labeled adenoviral vector particles; assay: depletion of Cy3-labeled adenovirus from suspension by fluorimetry; D1 tethered on stainless steel
[3] = target: adenovirus fiber knob as shown on Cy3-labeled adenoviral vector particles; assay: depletion of Cy3-labeled adenovirus from suspension by fluorimetry; D1 tethered on Co/Cr alloy
[4] = target: adenovirus fiber knob as shown on Cy3-labeled adenoviral vector particles; assay: depletion of Cy3-labeled adenovirus; D1-tethered against anti-knob Ab-tethered metal surfaces
[5] = target: adenovirus fiber knob as shown on Cy3-labeled adenoviral vector particles; assay: depletion of Cy3-labeled adenovirus from suspension by fluorimetry; D1 tethered on nitinol

Substance | concentration required to achieve maximal GFP expression (Av3GFP transduction of SKOV-3 cells) [1] [nM] | amount of Ad bound per cm^2 of the surface [2] [Ad per cm^2] | amount of Ad bound per cm^2 of the surface [3] [Ad per cm^2] | fold greater adenovirus binding than the specific antibody (anti-knob Ab) [4] | amount of Ad bound per cm^2 of the surface [5] [Ad per cm^2]
D1-FGF2 fusion protein (CAR D1 ligated to basic fibroblast growth factor FGF2 by intein-mediated protein ligation) (from UniProt P78310 15-140; P09038 134-288) | 14 | – | – | – | –
thiol-containing form of the D1 domain of the coxsackie-adenovirus receptor (D1-Cys), covalently immobilized on a metal surface (from UniProt P78310 15-140) | – | 1.08e+10 | 1.51e+10 | 2 fold and 4 fold | 1.16e+10
